We go through seven substances from patent US6090631.

In assay [1] the target is GST-syntaxin 1A fusion protein, full-length (2-289) (rat). The assay is described as follows: GST-syntaxin 1A pull-down (5 µM GST-syntaxin, 10 µM fusion protein), immunoblot. In general terms: In western blotting, separated proteins are transferred to a membrane and probed.
Assay [2] deals with GST alone (Schistosoma japonicum (Blood fluke)) [GST: P08515]. The assay is described as follows: 125I-ω-CTx-GVIA-labeled channels on GST beads, direct counting.
The target in assay [3] is GST fusion protein including full-length SNAP-25 (Mus musculus (Mouse)) (UniProt P60879). The assay is described as follows: titration on GST-SNAP-25 beads, immunoblot.
Assay [4] deals with GST-syntaxin 1A fusion protein, full-length (2-289) (rat). The assay is described as follows: titration on GST-syntaxin beads, immunoblot.
For assay [5] the target is unchanged. The assay is described as follows: competition on GST-syntaxin beads against 125I-ω-CTx-GVIA-labeled N-type channels.
The target is the same in assay [6]. In words: GST-syntaxin pull-down at equal concentrations, immunoblot.

As for His-LII-III (718-859), in assay [1], the pixel value (phosphorimaging of bound fusion protein, FIG. 14) amounted to 45 pixel value. Take His-LII-III (832-963): the pixel value (phosphorimaging of bound fusion protein, FIG. 14) in assay [1] was found to be 751 pixel value.

In turn, “[125I]-ω-CTx-GVIA-labeled N-type calcium channels, partially purified from rat brain (from UniProt Q02294)” had a cpm of labeled channels bound in assay [2] of 549 cpm. Regarding hBI 722-1036, the half-maximal saturation is 1 to 2 µM in assay [3] and 2 µM in assay [4]. Substance His-LII-III (773-859) registered a percent reduction in the specific binding of labeled N-type channels to GST-syntaxin in assay [5] of 78%. On to rbB 718-963, for which, in assay [4], the fold greater affinity than hBI 722-1036 was determined as 10 fold and the half-maximal saturation is 0.2 µM. Also, the pixel value (phosphorimaging of bound fusion protein, FIG. 14) in assay [1] came out at 1650 pixel value. This substance also displayed a fold higher affinity than rbB 718-859 in assay [6] of 40 fold.

In the case of His-LII-III (1027-1145), the percent reduction in the specific binding of labeled N-type channels to GST-syntaxin in assay [5] turned out to be 10%.
